Laboratory results published in patent publication US11732249 (WASHINGTON UNIVERSITY, dated 2023).

Target: T1, soluble bovine cation-independent mannose 6-phosphate receptor (CI-MPR), covalently conjugated to Cyanogen … (bovine, UniProt P08169 45-2313, limits assumed, covalently conjugated to Cyanogen bromide-activated-Sepharose 4B)
T1 construct: also called immobilized CI-MPR
Assay: CI-MPR-affinity bead pull-down from lysates of GNPTAB-/- HeLa cells transfected with empty vector, WT α/β precursor or DS1 mutant; western blot (FIG. 2C)
Experimental: (FIG. 2C) Western blot of GNPTAB^{-/-} HeLa cells co-transfected with the expression plasmids for the indicated proteins along with empty vector, WT α/β precursor or the DS1 mutant cDNA. Cell lysates were incubated with CI-MPR-affinity beads and the binding of the various proteins was determined by probing the blot with the following antibodies: Renin—anti-HA; NPC2, GP, Lamp1 and Lamp2 with antibodies generated against the native protein.

T1 sequence (P08169 45-2313 limits assumed): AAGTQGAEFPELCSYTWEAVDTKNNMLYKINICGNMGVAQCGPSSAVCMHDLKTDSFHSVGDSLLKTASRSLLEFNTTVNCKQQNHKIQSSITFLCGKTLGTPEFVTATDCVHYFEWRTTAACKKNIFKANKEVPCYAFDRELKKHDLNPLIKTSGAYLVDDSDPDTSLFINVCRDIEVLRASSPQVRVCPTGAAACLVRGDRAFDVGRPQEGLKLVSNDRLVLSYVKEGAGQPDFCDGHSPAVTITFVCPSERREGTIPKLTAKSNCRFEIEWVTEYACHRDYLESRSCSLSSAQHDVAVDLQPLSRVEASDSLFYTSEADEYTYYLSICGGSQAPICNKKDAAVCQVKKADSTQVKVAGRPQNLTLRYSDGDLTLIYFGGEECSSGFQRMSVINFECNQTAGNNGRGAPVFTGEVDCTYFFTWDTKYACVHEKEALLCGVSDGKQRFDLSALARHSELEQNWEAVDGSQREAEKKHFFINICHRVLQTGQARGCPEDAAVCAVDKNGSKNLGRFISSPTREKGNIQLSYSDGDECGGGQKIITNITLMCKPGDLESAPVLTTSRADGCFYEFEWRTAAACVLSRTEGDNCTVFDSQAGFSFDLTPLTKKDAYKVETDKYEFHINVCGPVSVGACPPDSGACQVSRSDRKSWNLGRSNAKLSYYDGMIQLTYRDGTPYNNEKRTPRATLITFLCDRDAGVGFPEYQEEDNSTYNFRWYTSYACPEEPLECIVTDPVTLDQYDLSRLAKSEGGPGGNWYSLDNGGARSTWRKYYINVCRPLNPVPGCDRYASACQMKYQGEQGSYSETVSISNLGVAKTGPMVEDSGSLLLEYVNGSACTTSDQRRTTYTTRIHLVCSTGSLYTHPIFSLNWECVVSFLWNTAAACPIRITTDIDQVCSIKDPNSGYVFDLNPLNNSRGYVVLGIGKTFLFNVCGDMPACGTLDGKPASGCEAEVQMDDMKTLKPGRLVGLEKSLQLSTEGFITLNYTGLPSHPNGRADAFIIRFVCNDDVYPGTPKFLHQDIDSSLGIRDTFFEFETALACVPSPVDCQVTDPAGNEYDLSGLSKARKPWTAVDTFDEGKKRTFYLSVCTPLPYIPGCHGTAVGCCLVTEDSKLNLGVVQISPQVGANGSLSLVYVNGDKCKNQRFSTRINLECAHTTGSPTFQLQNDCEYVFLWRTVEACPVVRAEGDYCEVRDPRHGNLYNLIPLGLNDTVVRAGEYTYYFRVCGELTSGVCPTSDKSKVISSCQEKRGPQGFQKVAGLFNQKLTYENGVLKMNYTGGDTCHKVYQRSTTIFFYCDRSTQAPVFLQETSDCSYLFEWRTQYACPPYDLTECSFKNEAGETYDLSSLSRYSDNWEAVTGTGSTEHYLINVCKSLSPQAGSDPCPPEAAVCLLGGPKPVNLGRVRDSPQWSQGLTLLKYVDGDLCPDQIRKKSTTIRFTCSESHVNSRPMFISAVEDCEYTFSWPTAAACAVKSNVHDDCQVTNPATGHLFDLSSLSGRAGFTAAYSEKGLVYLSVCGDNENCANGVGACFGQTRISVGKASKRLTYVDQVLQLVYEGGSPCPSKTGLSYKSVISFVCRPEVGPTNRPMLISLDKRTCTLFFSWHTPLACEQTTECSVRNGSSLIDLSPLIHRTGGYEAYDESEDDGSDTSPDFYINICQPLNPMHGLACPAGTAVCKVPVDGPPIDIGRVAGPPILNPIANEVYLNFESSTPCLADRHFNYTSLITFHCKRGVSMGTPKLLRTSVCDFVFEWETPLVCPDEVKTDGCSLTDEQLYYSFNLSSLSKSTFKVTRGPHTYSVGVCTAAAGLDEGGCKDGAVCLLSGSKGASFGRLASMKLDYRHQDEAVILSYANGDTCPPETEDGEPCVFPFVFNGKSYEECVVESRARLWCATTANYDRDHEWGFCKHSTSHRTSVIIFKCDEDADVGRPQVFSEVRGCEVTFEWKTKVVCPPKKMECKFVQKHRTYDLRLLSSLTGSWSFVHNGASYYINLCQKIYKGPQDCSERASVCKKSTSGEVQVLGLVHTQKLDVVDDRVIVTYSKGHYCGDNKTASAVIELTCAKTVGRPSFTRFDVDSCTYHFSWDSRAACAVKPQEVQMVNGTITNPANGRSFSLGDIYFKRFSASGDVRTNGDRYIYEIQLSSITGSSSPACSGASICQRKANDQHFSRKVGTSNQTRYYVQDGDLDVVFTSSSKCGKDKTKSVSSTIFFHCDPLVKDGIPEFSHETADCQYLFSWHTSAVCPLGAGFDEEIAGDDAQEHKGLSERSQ

B1: Lamp1 (other, UniProt P11279 29-417, looked up)
chain: AMFMVKNGNGTACIMANFSAAFSVNYDTKSGPKNMTFDLPSDATVVLNRSSCGKENTSDPSLVIAFGRGHTLTLNFTRNATRYSVQLMSFVYNLSDTHLFPNASSKEIKTVESITDIRADIDKKYRCVSGTQVHMNNVTVTLHDATIQAYLSNSSFSRGETRCEQDRPSPTTAPPAPPSPSPSPVPKSPSVDKYNVSGTNGTCLLASMGLQLNLTYERKDNTTVTRLLNINPNKTSASGSCGAHLVTLELHSEGTTVLLFQFGMNASSSRFFLQGIQLNTILPDARDPAFKAANGSLRALQATVGNSYKCNAEEHVRVTKAFSVNIFKVWVQAFKVEGGQFGSVEECLLDENSMLIPIAVGGALAGLVLIVLIAYLVGRKRSHAGYQTI
- binding result: no binding
